The record followed here is US20130296258A1 (Pieris, published 2013).

The target in the assay is T1, Recombinant human Glypican-3 (human, UniProt P51654 25-559, limits assumed, randomly biotinylated via Lysine residues (EZ-Link Sulfo-NHS-LC-LC-Biotin) where captured on Neutravidin; not biotinylated where used as competitor in solution).
T1 construct: Bought protein; The biotinylated and the non-biotinylated preparation are written as one molecule; also called GPC3; GPC-3
The assay can be described thus: direct ELISA: biotinylated human Glypican-3 captured via Neutravidin, protein titrated, RFU readout. How it is done:
A “direct” ELISA was performed to verify the binding affinity and specificity of the selected Lcn2 muteins. Therefore, a constant concentration of 1 μg/ml biotinylated human Glypican 3 (R&D Systems) was captured on the surface of a polystyrol plate (Greiner, GE) via BSA blocked Neutravidin (Thermo Scientific, 5 μg/ml). Two step dilution series of purified Lcn2 muteins were incubated with the captured GPC-3 for 1 h at room temperature and detected either via the Strep-tag II using a rabbit anti-strep-tag II polyconal antibody (GenScript, USA) or by using a scaffold-specific polyclonal rabbit antibody. In both cases an anti rabbit IgG-HRP conjugate (Abcam, UK) was employed as secondary detection antibody.
The absorption ΔA at […] was measured in an ELISA reader (Tecan, GE) and the data were fitted with Graphpad Prism software (Statcom, USA).
(In an ELISA, binding on a coated surface is turned into a signal by an enzyme label.)

T1 sequence (P51654 25-559 limits assumed): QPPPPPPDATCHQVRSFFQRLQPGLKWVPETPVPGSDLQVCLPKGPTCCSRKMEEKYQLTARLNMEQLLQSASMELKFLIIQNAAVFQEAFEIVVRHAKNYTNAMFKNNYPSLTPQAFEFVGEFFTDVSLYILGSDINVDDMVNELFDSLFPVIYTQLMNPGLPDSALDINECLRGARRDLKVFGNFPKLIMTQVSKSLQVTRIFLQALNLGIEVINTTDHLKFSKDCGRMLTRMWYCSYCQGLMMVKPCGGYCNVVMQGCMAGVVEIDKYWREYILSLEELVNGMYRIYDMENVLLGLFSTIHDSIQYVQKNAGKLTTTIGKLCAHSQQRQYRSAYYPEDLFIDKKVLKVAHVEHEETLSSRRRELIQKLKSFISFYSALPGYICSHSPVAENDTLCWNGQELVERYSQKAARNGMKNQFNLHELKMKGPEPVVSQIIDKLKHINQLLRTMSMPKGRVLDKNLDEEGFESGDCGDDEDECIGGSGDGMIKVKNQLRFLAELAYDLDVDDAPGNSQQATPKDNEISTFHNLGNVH

B1: Lcn2 wildtype protein (other)
chain: QDSTSDLIPAPPLSKVPLQQNFQDNQFHGKWYVVGLAGNAILREDKDPQKMYATIYELKEDKSYNVTSVLFRKKKCDYWIRTFVPGSQPGEFTLGNIKSYPGLTSYLVRVVSTNYNQHAMVFFKKVSQNREYFKITLYGRTKELTSELKENFIRFSKSLGLPENHIVFPVPIDQCIDG
notes: also called recombinant Lcn2; negative control; not shown: C-terminal Strep-tag II of the phNGAL98 expression vector
With B1, the binding result is recorded as “no binding”.
